B1: Tripartite motif-containing protein 44, residues 174 to 218; numbered along this chain, Q96DX7 (parent)
chain: VAKRKCPDHGLDLSTYCQEDRQLICVLCPVIGAHQGHQLSTLDEA

± gives the uncertainty stated by the source.

This data set covers variants of B1. The experiment in a line: abundance fitness (aPCA) (normalised: wild type 0, dead -1); higher = more abundant; growth selection in yeast, the domain comes from the species named. The settings on record: Homo sapiens.
VAKRKCPDHGLDLSTYCQEDRQLICVLCPVIGAHQGHQLSTFDEA [L42F]: the abundance fitness was -0.031 ± 0.053.
With VAKRKCPDHGLDLSTYCQEDRQLICVLCPVIGAHQGHQLSTSDEA [L42S], the abundance fitness stood at 0.033 ± 0.028.
The result for VAKRKCPDHGLDLSTYCQEDRQLICVLCPVIGAHQGHQLSTADEA [L42A] reads 0.045 ± 0.027; that for VAKRKCPDHGLDLSTYCQEDRQLICVLCPVIGAHQGHQLSTVDEA [L42V], 0.023 ± 0.027; that for VAKRKCPDHGLDLSTYCQEDRQLICVLCPVIGAHQGHQLSTCDEA [L42C], 0.014 ± 0.036.
For VAKRKCPDHGLDLSTYCQEDRQLICVLCPVIGAHQGHQLSTWDEA [L42W], the abundance fitness was -0.034 ± 0.028.
The result for VAKRKCPDHGLDLSTYCQEDRQLICVLCPVIGAHQGHQLSTTDEA [L42T] reads 0.068 ± 0.033; that for VAKRKCPDHGLDLSTYCQEDRQLICVLCPVIGAHQGHQLSTPDEA [L42P], 0.027 ± 0.035; that for VAKRKCPDHGLDLSTYCQEDRQLICVLCPVIGAHQGHQLSTQDEA [L42Q], 0.048 ± 0.033.
The result for VAKRKCPDHGLDLSTYCQEDRQLICVLCPVIGAHQGHQLSTMDEA [L42M] reads -0.003 ± 0.031; that for VAKRKCPDHGLDLSTYCQEDRQLICVLCPVIGAHQGHQLSTGDEA [L42G], 0.05 ± 0.025.
In the case of VAKRKCPDHGLDLSTYCQEDRQLICVLCPVIGAHQGHQLSTNDEA [L42N] it was 0.002 ± 0.047; in that of VAKRKCPDHGLDLSTYCQEDRQLICVLCPVIGAHQGHQLSTRDEA [L42R], 0.024 ± 0.026; in that of VAKRKCPDHGLDLSTYCQEDRQLICVLCPVIGAHQGHQLSTDDEA [L42D], 0.028 ± 0.049.
VAKRKCPDHGLDLSTYCQEDRQLICVLCPVIGAHQGHQLSTHDEA [L42H]: the abundance fitness amounted to 0.056 ± 0.049.
In the case of VAKRKCPDHGLDLSTYCQEDRQLICVLCPVIGAHQGHQLSTYDEA [L42Y] it was 0.017 ± 0.039.
The result for VAKRKCPDHGLDLSTYCQEDRQLICVLCPVIGAHQGHQLSTKDEA [L42K] reads 0.043 ± 0.035.
The result for VAKRKCPDHGLDLSTYCQEDRQLICVLCPVIGAHQGHQLSTEDEA [L42E] reads 0.035 ± 0.03; that for VAKRKCPDHGLDLSTYCQEDRQLICVLCPVIGAHQGHQLSVLDEA [T41V], -0.038 ± 0.026; that for VAKRKCPDHGLDLSTYCQEDRQLICVLCPVIGAHQGHQLSPLDEA [T41P], 0.003 ± 0.033.
With VAKRKCPDHGLDLSTYCQEDRQLICVLCPVIGAHQGHQLSHLDEA [T41H], the abundance fitness is -0.102 ± 0.049.
In the case of VAKRKCPDHGLDLSTYCQEDRQLICVLCPVIGAHQGHQLSSLDEA [T41S] it was 0.032 ± 0.03; in that of VAKRKCPDHGLDLSTYCQEDRQLICVLCPVIGAHQGHQLSNLDEA [T41N], 0.009 ± 0.042; in that of VAKRKCPDHGLDLSTYCQEDRQLICVLCPVIGAHQGHQLSYLDEA [T41Y], -0.098 ± 0.036.
With VAKRKCPDHGLDLSTYCQEDRQLICVLCPVIGAHQGHQLSLLDEA [T41L], the abundance fitness was -0.087 ± 0.028.
In the case of VAKRKCPDHGLDLSTYCQEDRQLICVLCPVIGAHQGHQLSWLDEA [T41W] it was -0.131 ± 0.029.
The result for VAKRKCPDHGLDLSTYCQEDRQLICVLCPVIGAHQGHQLSMLDEA [T41M] reads -0.065 ± 0.03; that for VAKRKCPDHGLDLSTYCQEDRQLICVLCPVIGAHQGHQLSQLDEA [T41Q], 0.011 ± 0.037; that for VAKRKCPDHGLDLSTYCQEDRQLICVLCPVIGAHQGHQLSFLDEA [T41F], -0.254 ± 0.051.
Turning to VAKRKCPDHGLDLSTYCQEDRQLICVLCPVIGAHQGHQLSILDEA [T41I], the abundance fitness was -0.11 ± 0.04.
With VAKRKCPDHGLDLSTYCQEDRQLICVLCPVIGAHQGHQLSGLDEA [T41G], the abundance fitness came out at 0.009 ± 0.025.
With VAKRKCPDHGLDLSTYCQEDRQLICVLCPVIGAHQGHQLSTLNEA [D43N], the abundance fitness is -0.026 ± 0.044.
On to VAKRKCPDHGLDLSTYCQEDRQLICVLCPVIGAHQGHQLSTLAEA [D43A], for which the abundance fitness was -0.036 ± 0.027.
As to VAKRKCPDHGLDLSTYCQEDRQLICVLCPVIGAHQGHQLSTLHEA [D43H], the abundance fitness is -0.058 ± 0.044.
For the variant VAKRKCPDHGLDLSTYCQEDRQLICVLCPVIGAHQGHQLSTLVEA [D43V], the abundance fitness is -0.056 ± 0.027.
Turning to VAKRKCPDHGLDLSTYCQEDRQLICVLCPVIGAHQGHQLSTLTEA [D43T], the abundance fitness was -0.042 ± 0.029.
In the case of VAKRKCPDHGLDLSTYCQEDRQLICVLCPVIGAHQGHQLSTLCEA [D43C] it was -0.042 ± 0.033; in that of VAKRKCPDHGLDLSTYCQEDRQLICVLCPVIGAHQGHQLSTLWEA [D43W], -0.211 ± 0.029; in that of VAKRKCPDHGLDLSTYCQEDRQLICVLCPVIGAHQGHQLSTLEEA [D43E], 0.023 ± 0.028.
In the case of VAKRKCPDHGLDLSTYCQEDRQLICVLCPVIGAHQGHQLSTLREA [D43R] it was -0.072 ± 0.026; in that of VAKRKCPDHGLDLSTYCQEDRQLICVLCPVIGAHQGHQLSTLSEA [D43S], -0.026 ± 0.029; in that of VAKRKCPDHGLDLSTYCQEDRQLICVLCPVIGAHQGHQLSTLPEA [D43P], 0 ± 0.029.
In the case of VAKRKCPDHGLDLSTYCQEDRQLICVLCPVIGAHQGHQLSTLQEA [D43Q] it was -0.035 ± 0.032.
With VAKRKCPDHGLDLSTYCQEDRQLICVLCPVIGAHQGHQLSTLFEA [D43F], the abundance fitness is -0.157 ± 0.034.
Take VAKRKCPDHGLDLSTYCQEDRQLICVLCPVIGAHQGHQLSTLYEA [D43Y]: the abundance fitness is -0.112 ± 0.045.
For the variant VAKRKCPDHGLDLSTYCQEDRQLICVLCPVIGAHQGHQLSTLKEA [D43K], the abundance fitness was -0.073 ± 0.037.
In the case of VAKRKCPDHGLDLSTYCQEDRQLICVLCPVIGAHQGHQLSTLLEA [D43L] it was -0.107 ± 0.028; in that of VAKRKCPDHGLDLSTYCQEDRQLICVLCPVIGAHQGHQLSTLMEA [D43M], -0.072 ± 0.035; in that of VAKRKCPDHGLDLSTYCQEDRQLICVLCPVIGAHQGHQLSTLGEA [D43G], -0.013 ± 0.026.
For the variant VAKRKCPDHGLDLSTYCQEDRQLICVLCPVIGAHQGHQLSTLIEA [D43I], the abundance fitness was -0.132 ± 0.041.
VAKRKCPDHGLDLSTYCQEDRQLICVLCPVIGAHQGHQLSTLDHA [E44H]: the abundance fitness turned out to be 0.102 ± 0.068.
Take VAKRKCPDHGLDLSTYCQEDRQLICVLCPVIGAHQGHQLSTLDIA [E44I]: the abundance fitness was -0.132 ± 0.054.
On to VAKRKCPDHGLDLSTYCQEDRQLICVLCPVIGAHQGHQLSTLDFA [E44F], for which the abundance fitness is -0.123 ± 0.054.
The result for VAKRKCPDHGLDLSTYCQEDRQLICVLCPVIGAHQGHQLSTLDDA [E44D] reads -0.053 ± 0.034; that for VAKRKCPDHGLDLSTYCQEDRQLICVLCPVIGAHQGHQLSTLDCA [E44C], -0.055 ± 0.032; that for VAKRKCPDHGLDLSTYCQEDRQLICVLCPVIGAHQGHQLSTLDAA [E44A], 0.009 ± 0.028.
Consider VAKRKCPDHGLDLSTYCQEDRQLICVLCPVIGAHQGHQLSTLDGA [E44G], for which the abundance fitness was -0.002 ± 0.027.

The values are drawn from the Human Domainome abundance scans (Beltran et al. 2025).
